These results are taken from patent US20250051458A1, “Methods for Treating Neurodegeneration Targeting IGF1/IGF1R” (The Schepens Eye Research Institute, Inc., priority 2021, published 2025).

This series concerns microbead-induced glaucoma mice. The class given is in vivo, mouse. The procedure:
For whole mounted retina staining, mouse eyeballs were fixed in 4% paraformaldehyde for 3 hours at room temperature or overnight at 4° C. fridge after sacrificing mice with carbon dioxide (CO2). Then retinas were dissected out and incubated with blocking buffer (3% donkey serum+1% BSA+0.1% Triton+0.1% Tween in 1×PBS) for 1-3 h RT. Then retinas were subjected to immunolabeling by incubation with primary antibody (Table 1) overnight at 4° C. After washing three times by washing buffer (0.1% Triton-100 in PBS), retinas were incubated with secondary antibody at room temperature for 2 hrs. After rinsing retina three times in washing buffer for 5-10 min on shaker, mount slide with Fluoroshield Mounting Medium with DAPI (Abcam, Cat. No. ab104139). Visualize under microscope (Leica, SP8). Secondary antibody: Streptavidin, Alexa Fluor 546 conjugate (1:1000, S11225, Invitrogen), Streptavidin, Alexa Fluor 488 conjugate (1:1000, S11223, Invitrogen), Cy2 Donkey Anti-rabbit (1:1000, 711-225-152, Jackson ImmunoResearch), Cy3 Donkey Anti-mouse (1:1000, 715-165-150, Jackson ImmunoResearch), Cy3 Donkey Anti-goat (1:1000, 705-165-147, Jackson ImmunoResearch).
Total RNA was extracted from retinas of adult mice or purified retinal microglial cells using RNeasy Plus Mini kit (Qiagen, 74134) or RNeasy Micro kit (Qiagen, 74004) following manufacturer's instruction. The RNA was reversely transcribed using Takara PrimeScript™ RT Master Mix (Takara Bio, RR036A). A mixture of master mix contained cDNA, 2× Master Mix from KAPA SYBR Fast qPCR kit and […] of specific primers was used to detect specific mRNA expression level using the Mastercycler ep realplex real-time PCR system (Eppendorf, Westbury, NY). The temperature of initial denaturation was set at 95° C. for 2 mins followed by 45 cycles of 15 seconds denaturation (95° C.), 15 seconds annealing (59° C.), and 20 seconds extension (68° C.), and lastly holding at 4° C. Relative amount of specific mRNA transcript was presented in fold changes by normalization to the expression level of the housekeeping gene glyceraldehyde 3-phosphate dehydrogenase (GAPDH). Expression was analyzed using the 2−ΔΔCt method. All primers were synthesized by Integrated DNA Technologies (USA).
Elevated IOP was induced unilaterally in adult mice (10-12 weeks old) as described previously^21. Briefly, the mice were anesthetized by i.p. injection of ketamine (120 mg/kg)/xylazine (20 mg/kg) mixture using 25-gauge needle. The pupil was dilated with tropical application of 1% Tropicamide followed by proparacaine HCl (0.5%; Baush & Lomb Incorporated, Tampa, FL) to numb the eye. An entry on the corneal was generated by a 30-gauge needle, and a small air bubble was injected into anterior chamber via a glass micropipette which was connected with a Hamilton syringe. 2 μl solution of 10 μm microspheres (9.0×10^7 beads/ml sterile saline; Thermo Fisher Scientific, Cat. No. F8833) was injected into anterior chamber with care to avoid damaging the iris and the lens. The micropipette will be withdrawn slowly after delivery of microbeads. Antibiotic ointment will be applied topically on the cornea after the injection, and then leave the operated mice to recover on a warm pad and monitored every 15 minutes until awake and fully sternal.
Mice were anesthetized by isoflurane inhalation (2-4%; Webster Veterinary, Sterling, MA) delivered in 100% Oxygen with a precision Vaporizer. The IOP was measured by TonoLab tonometer (Colonial Medical Supply) before and post-MB injection. An average of 6 IOP readings will be taken as one reading. At least […] readings of IOP level will be taken per mouse eye, and the mean of 3 readings represents the IOP level of a mouse eye. Baseline level of IOP in anesthetized mice was measured before induction of elevated IOP. Then the IOP was measured twice a week after microbeads injection induced IOP elevation. The IOP was measured at the same time in the morning to minimize the circadian variation. […]

Where [1] appears, read: 14 days post glaucoma induction.
[2] abbreviates: intravitreal at day 3, 10 and 17 post IOP elevation.

B1: IGFBPL1: insulin-like growth factor binding protein like protein 1; recombinant protein (R&D system, 4130-BL) (protein)
chain: LGLRDAGRRHPECSPCQQDRCPAPSPCPAPWISARDECGCCARCLGAEGASCGGPVGSRCGPGLVCASRASGTAPEGTGLCVCAQRGAVCGSDGRSYSSICALRLRARHAPRAHHGHLHKARDGPCEFAPVVLMPPRDIHNVTGTQVFLSCEVKAVPTPVITWKKVKHSPEGTEGLEELPGDHVNIAVQVRGGPSDHETTSWILINPLRKEDEGVYHCHAANAIGEAQSHGTVTVLDLNRYKSLYSSVPGDLL
B1: for the setting “4- and 8-weeks post glaucoma induction”, the “Contrast sensitivity (CS) and visual acuity (VA) by optomotor response” value was “restored CS and VA”. Under setting [1], the “Expression of pro-inflammatory cytokines (C1q, Tnfα, Il-1β, Il-1α) in glaucoma retina” value is “remarkably reduced” and the “Level of activated microglia markers (Iba-1, Ym-1, Nox-2, Cd163) in retina by qPCR” value is on record as “dramatically down-regulate”. Further, the “Reactive astrocyte number and GFAP level in retina” value (day 14 post glaucoma induction) is “significantly restored”. In addition, under setting [2], the “RGC quantification compared with baseline” value was “no significant difference with baseline”; the “RGCs loss and dysfunction from glaucomatous damages” value is “significantly prevented RGCs loss and dysfunction”. Moreover, where the note is “intravitreal at day 3 and 10, 2 wks post glaucoma-induced injury”, the “IBA-1+ microglia activation (morphology, cell density) in retina” value was “reverse activated microglia into resting state”. Further, the “pSTR amplitude (ERG) compared with baseline” value (mouse, in vivo) was “no significant difference with baseline”.
